According to the nanobody polyreactivity screen of Harvey et al. (2022):

Test: yeast display, Sf9 membrane polyspecificity reagent, FACS + sequencing; frameworks hold sequencing errors
How it was run: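 A synthetic nanobody library was expressed on Saccharomyces cerevisiae BJ5465 by galactose induction for 36–48 hours. The library was stained for 1 hour at 4 °C with 10% biotinylated, detergent-solubilized Sf9 membrane reagent and enriched with streptavidin microbeads before FACS. Low and high (top ~1%) gates were set on anti-HA fluorescence for expression and streptavidin fluorescence for reagent binding, and each polyreactivity label reflects the gate of origin.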

Sequence	polyreactivity (PSR sort gate)
QVQLVESGGGLVQAGGSLRLSCAASGSTFVKYAMGWYRQAPGKERELVAVISSAGSTNYADSVKGRFTISRDNAKNTVYLQMNSLKPEDTAVYYCNAEPTTPYWDYWAYEDDYWGQGTQVTVSS	low polyreactivity
QVQLVESGGGLVQAGGSLRLSCAASGSTFVLYALGWYRQPPGKERELVAVISWSGGSTYYADSVKGRFTISRDKAKNTVYLQMNSLKPEDTADYYCAATGWSSFYYRFDYWGQGTQVTVSS	low polyreactivity
QVQLVESGGGLVQAGGSLRLSCAASGSTFVNNAMGWYRQAPGKERELVAAISWSGGSTYYADSVKGRFTISRDNAKNTVYLQMNSLNPEDTAVYYCAADGNARAAMDYWGQGTQVTVSS	low polyreactivity
QVQLVESGGGLVQAGGSLRLSCAASGSTFVNNAMGWYRQAPGKERELVAAITNGGSTNYADSVKGRFTISRDNAKNTVYLQMNSLKPEDTAVYYCAKYGDPYRHRSGTVEYGYWGQGTQVTVSS	low polyreactivity
QVQLVESGGGLVQAGGSLRLSCAASGSTFVPNAMGGSRPAPGKERELVAAISYSGGTTYYADSVKGRFTISRDNAKNTVYLQMNSLKPEDTAVYYCAARSKGAAAILDDYWGQGTQVTVSS	low polyreactivity
QVQLVESGGGLVQAGGSLRLSCAASGSTFVPNAMGWYRQAPGKEREFVAAIRVSGDNTYYADSVKGRFTISRDNAKNTVYLQMNSLKPEDTGVYYCAATGTVLGSVDYWGQGTQVTVSS	low polyreactivity
QVQLVESGGGLVQAGGSLRLSCAASGSTFVPNAMGWYRQAPGKERELVAAISSVGSTNYADSVKGRFTISRDNAKNTVYLQMNSLKPEDTAVYYCAVRYPWRYFKYGYWGQGTQVTVSS	low polyreactivity
QVQLVESGGGLVQAGGSLRLSCAASGSTFVPNDMGWYRQAPGKEMELVAGISSGGGTYADSVKGRFTISRDNAKNTVYLQLNSLKPVDTAVYYCNALHAYYVLTPYDYWGQGTQVTVSS	low polyreactivity
QVQLVESGGGLVQAGGSLRLSCAASGSTFVPYAMGWYRQAPGKEREFVAGITWSVGSTYYADSVKGRFTISRDNAKNTVYLQMNSLKPEDTAVYYCNAEIYAYFLWWYGYWGQGTQVTVSS	low polyreactivity
QVQLVESGGGLVQAGGSLRLSCAASGSTFVQNAMGWYRQAPGKERELVAAISRTGGSTYYADSVKGRITFSRDNAKNTVYLQLNTLKPEDTAVYFCAKRPPHYSWPKIIEFGSWGQGTQVTVSS	high polyreactivity
QVQLVESGGGLVQAGGSLRLSCAASGSTFVRNAMGWYRQAPGKERELVAAITWSTGTTYYADSVKGRFTISRDNAKNTVYLQMNSLKPEDTAVYYCAADIYTELFKHDYWGQGTQVTVSS	low polyreactivity
QVQLVESGGGLVQAGGSLRLSCAASGSTFVRNDMGWYRQAPGKERELVAAINGDGRTYYADSVKGRFTISRDNAKNTVYLQLNSLKPEDTAVYYCAADGYLLYVQHPNGRRYDYWGQGTQVTVSS	low polyreactivity
QVQLVESGGGLVQAGGSLRLSCAASGSTFVRNGMGWYRQAPGKERELVASISGRGGSTYYADSVKGRFTISRDNAKNTVYLQMNSLKPEDTAVYYCAVRYGFYSRYNYWGQGTQVTVSS	high polyreactivity
QVQLVESGGGLVQAGGSLRLSCAASGSTFVRYAMGWYRPAPGKERELVAVISSSGGTTYYADSVKGRFTISRDNAKNTVYLQMNSLKPEDTAVYSCARRVRWWGPRRSDFDYWGQGTQVTVSS	high polyreactivity
QVQLVESGGGLVQAGGSLRLSCAASGSTFVRYAMGWYRQAPGKDRELVARISSAGSTNYADSVKGRFTISRDNAKNTVYLQMNSLKPEDTAVYYCAATTKAGVSSGQGDSWGQGTQVTVSS	low polyreactivity
QVQLVESGGGLVQAGGSLRLSCAASGSTFVRYAMGWYRQAPGKERELVAAITGTGSSTYYADSVKGRFTISRDNAKNTVYLQMNSLKPEDTAVYYCAKRWRTVFGYDYWGQGTQVTVSS	high polyreactivity
QVQLVESGGGLVQAGGSLRLSCAASGSTFVRYAMGWYRQAPGKERELVAGISSGDRTYYADSVKGRFTISRDNAKNTVYLQMNSLKPEDTAVYYCNARPVYLLEGYYWGQGTQVTVSS	low polyreactivity
QVQLVESGGGLVQAGGSLRLSCAASGSTFVRYAMGWYRQEPGKERELVAAISKSGGSTYYADSVKGRFTISRDNAKNTVYLQMNSLKPEDTAVYYCNADVYKNSKFRIMGYWGQGTQVTVSS	low polyreactivity
QVQLVESGGGLVQAGGSLRLSCAASGSTFVRYVMGWYRQAPGKERELVAAISRRGGSTYYADSVKGRFTISRDNAKNTVYLQMHSLKPEDSAVYYCARTVGYSTLLESVSWGQGTQLTVSS	high polyreactivity
QVQLVESGGGLVQAGGSLRLSCAASGSTFVSNAMGWYRPAPGKERELVAAISTSGGSTYYADSVKGRFTISRDNAKNTVYLLMNSLKPEDTAVYYCAKLLARGFRIWQDYDYWGQGTQVTVSS	low polyreactivity

Sequence	polyreactivity (PSR sort gate)
QVQLVESGGGLVQAGGSLRLSCAASGSTFVSNAMGWYRQAPGKERELVAGISWSGGSTYYADSVKGRFTISRDNAKNTVYLQMHSLKPEDTAVYYCNAVYRPRQFDYWGQGTQVTVSS	low polyreactivity
QVQLVESGGGLVQAGGSLRLSCAASGSTFVSNAMGWYRQAPGKERELVASISQSGGGTDYADSVKGRFTISRDNAKNTVYLQMNSLKPEDTAVYYCAADRVPVQAPYDYWGQGTQVTVSS	high polyreactivity
QVQLVESGGGLVQAGGSLRLSCAASGSTFVSNGMGWYRQAPGKERELVAAITRGGSTKYADSVKGRFTISRDNAKNTVYLQMNSLKPEDTAVYYCAKRLYTRPGWYDYWGQGTQVTVSS	high polyreactivity
QVQLVESGGGLVQAGGSLRLSCAASGSTFVSYAMGWYRQAPGKERELVAAISISDSSTYYADSVKGRFSISRDNAKNTVYLQMNSLKPEDTAVYYCNRYDFWGQGTQVTVSS	low polyreactivity
QVQLVESGGGLVQAGGSLRLSCAASGSTFVSYAMGWYRQAPGKERELVAASSRSGGSTYYADSVKGRFTISRDNAKNTVYLQMNILIPEDTAVYYCAADGRGPSKRNRDYWGQGTQVTVSS	high polyreactivity
QVQLVESGGGLVQAGGSLRLSCAASGSTFVSYAMGWYRQAPGKERELVAGITRRGGTTYYADSVKGRFTISRDNAKNTVYLQMNSLKPEDTAVYYCARYSLYTGYRRYPLDYDYWGQGTQVTVSS	high polyreactivity
QVQLVESGGGLVQAGGSLRLSCAASGSTFVSYDMGWYRQAPGKERELVADISWSGVSTYADSVKGRFTISRDNAKNTVYLQMNSLKPEDTAVYYCATDDARRGYGYGYWGQGTQVTVSS	low polyreactivity
QVQLVESGGGLVQAGGSLRLSCAASGSTFVTNAMGWYRQAPGTEREFVAAISWISTSTYYADSVKGRFTISRDNAKNTVYLQMNSLKPEDTAVYYCNATTFAFSPSLKGAYGYWGQGTQVTVSS	low polyreactivity
QVQLVESGGGLVQAGGSLRLSCAASGSTFVTYAMGCYRQAPGKERELVAVITYSGGNTYYADSVKGRVTISRDNAKNTVYLQMNSLKPEDTAVYDCAAAWLTSRGSRDSHRKYYYWGQGTQVTVSS	high polyreactivity
QVQLVESGGGLVQAGGSLRLSCAASGSTFVTYAMGWYRQAPGKERELVAAIDSGGNTNYADSVKGRFTISRDNAKNTVYLQMNSLKPEDTAVYYCAVRPYELHRLDDQPGGDDYWGQGTQVTVSS	low polyreactivity
QVQLVESGGGLVQAGGSLRLSCAASGSTFVTYGMGWYRQAPGKERELVAAITRDSSTNDADSVKGRFTISRDNAKNTVYLQLNSLKPEDTAVYYCATPRLPNFIGTEYDYWGQGTQVTVSS	low polyreactivity
QVQLVESGGGLVQAGGSLRLSCAASGSTFVVNAMGWYRQAPGKERELVAAIDDGAGDTYYADSVKGRFTISRDNAENTVYLQMNSLKPEDTAVYYCAADTWYQMDYWGQGTQVTVSS	low polyreactivity
QVQLVESGGGLVQAGGSLRLSCAASGSTFVVNVMGWYRQAPGKERELVAAITYRSGSTYYADSVKGSFTISRDNAKNTVYLQMNSLKPEDTAVYYCAAGYYSRYYVAFEYYYWGQGTQVTVSS	high polyreactivity
QVQLVESGGGLVQAGGSLRLSCAASGSTFVVYAMGWYRQAPGKERELVAAIDLSVGDTYYADSVKGRFTISRDNAKNTVYLQMNSLKPEDTAVYYCNVAVYYWRWIYGYWGQGTQVTVSS	low polyreactivity
QVQLVESGGGLVQAGGSLRLSCAASGSTFVWYAMGWYRQAPGKERELVAVINWSAGRTYYADSVKGRFTFSRDTAKNTVYLQMNSLKPEDTAVYYCATRTYYRSRTVGWGKMDYWGQGTQVTVSS	high polyreactivity
QVQLVESGGGLVQAGGSLRLSCAASGSTFVWYDMGWYRQAPGKERELVATITSGGITTYADSVKGRFTISRDNAKNTVYLQMNSPKPEDTAVYYCNADLYYWLRYYDRNEYRGQGTQVTVSS	low polyreactivity
QVQLVESGGGLVQAGGSLRLSCAASGSTFVYNAMGRYRQAPVKERELVAAISSGGSTYYADSVKGRFTISRDNAKNTVYLQMNSLKPEATAVYYCNARGSWRRDKYGTYYRYDYWGQGTQVTVSS	high polyreactivity
QVQLVESGGGLVQAGGSLRLSCAASGSTFVYNAMGWYRQAPGKERELVAAISRGGGITYYADSVKGRFTISRDNAKNTVYLQMNSLKPEDTAVYYCQYLSRGLNTYRSSQGDDDYWGQGTQVTVSS	high polyreactivity
QVQLVESGGGLVQAGGSLRLSCAASGSTFVYNAMGWYRQAPGKERELVASITRSGSSTYYADSVKGRFTISRDNAKNTVYLQMNSLKPEDTAVYYCAVRYSVLSNYRYYYWGQGTQVTVSS	low polyreactivity
QVQLVESGGGLVQAGGSLRLSCAASGSTFVYNARGWYRQAPGKERELVAAISRRGGSTYYADSVKGRFTISRDNAKNTVYLQMNSLKPEDTAVYYCAADQYRTNSYRYDYWGQGTQVTVSS	low polyreactivity
